From publication PMC12320502

Target: HSPA5 tagged with Myc (pcDNA3.1) (UniProt P11021)
Test: Co-IP (IP: Flag, immunoblot: Myc), band intensity number under the Myc blot
Conditions: parent: 1.0

Sequence of UniProt P11021 (P11021 19-654): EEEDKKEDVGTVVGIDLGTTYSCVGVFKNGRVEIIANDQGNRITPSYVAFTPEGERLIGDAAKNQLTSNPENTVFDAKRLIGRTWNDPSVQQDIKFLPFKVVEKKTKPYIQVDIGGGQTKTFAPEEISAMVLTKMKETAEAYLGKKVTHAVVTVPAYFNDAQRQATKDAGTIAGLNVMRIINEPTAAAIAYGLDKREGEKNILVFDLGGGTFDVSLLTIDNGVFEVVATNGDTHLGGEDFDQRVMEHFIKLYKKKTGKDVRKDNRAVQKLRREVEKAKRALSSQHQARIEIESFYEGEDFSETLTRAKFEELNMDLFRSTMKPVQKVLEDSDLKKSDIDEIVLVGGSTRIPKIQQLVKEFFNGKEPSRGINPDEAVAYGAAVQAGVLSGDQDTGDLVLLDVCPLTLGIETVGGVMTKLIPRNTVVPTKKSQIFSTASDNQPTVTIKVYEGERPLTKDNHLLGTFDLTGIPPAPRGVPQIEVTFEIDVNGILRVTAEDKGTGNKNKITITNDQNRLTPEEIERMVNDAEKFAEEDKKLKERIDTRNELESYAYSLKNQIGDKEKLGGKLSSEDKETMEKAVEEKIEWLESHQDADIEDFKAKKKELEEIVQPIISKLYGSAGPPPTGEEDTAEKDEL

Row | Substance | ratio to parent
1 | SBSPON tagged with 3×Flag (pcDNA3.1-3×Flag-SBSPON) (from UniProt Q8IVN8) ASP88Vla | 0.7
2 | SBSPON tagged with 3×Flag (pcDNA3.1-3×Flag-SBSPON) (from UniProt Q8IVN8) GLU123Vla | 0.9
3 | SBSPON tagged with 3×Flag (pcDNA3.1-3×Flag-SBSPON) (from UniProt Q8IVN8) HIS134Vla | 0.8

Second part, the substance after the results:

Row | ratio to parent | Substance
4 | 0.8 | SBSPON tagged with 3×Flag (pcDNA3.1-3×Flag-SBSPON) (from UniProt Q8IVN8) ASP88Vla; LYS91Vla; GLU123Vla; HIS134Vla
5 | 0.9 | SBSPON tagged with 3×Flag (pcDNA3.1-3×Flag-SBSPON) (from UniProt Q8IVN8) LYS91Vla
